Test results: PMC10290082, “Tau protein binds to the P53 E3 ubiquitin ligase MDM2” (Scientific Reports, 2023)

Target: T1, recombinant human MDM2 (human, UniProt Q00987 1-491)
T1 construct: E3 ubiquitin-protein ligase MDM2, human; source: bought: Biotechne (E3-204-050)
Test: pull-down; purified recombinant proteins (15 ng), alone or together, on beads coupled to the pDIQ peptide; uncoupled beads as control; western blot
Conditions: both partners purified

T1 sequence (Q00987 whole entry): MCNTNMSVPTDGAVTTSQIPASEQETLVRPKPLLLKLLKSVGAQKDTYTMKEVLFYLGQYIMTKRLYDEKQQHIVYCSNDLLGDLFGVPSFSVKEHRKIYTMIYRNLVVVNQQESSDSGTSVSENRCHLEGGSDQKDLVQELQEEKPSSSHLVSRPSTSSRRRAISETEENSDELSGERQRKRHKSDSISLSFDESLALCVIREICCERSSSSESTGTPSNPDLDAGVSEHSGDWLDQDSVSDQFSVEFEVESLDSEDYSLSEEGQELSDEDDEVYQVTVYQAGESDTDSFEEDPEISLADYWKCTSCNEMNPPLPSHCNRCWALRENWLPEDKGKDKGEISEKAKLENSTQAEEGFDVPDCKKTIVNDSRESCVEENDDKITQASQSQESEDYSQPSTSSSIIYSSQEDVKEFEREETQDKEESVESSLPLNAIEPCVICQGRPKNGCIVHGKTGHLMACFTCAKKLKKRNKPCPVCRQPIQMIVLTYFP

binding result: binds
Binder: ETFEHWWSQLLSGGC [pDIQ peptide]
